The chains are these.
B1: TCN-557 (5081_A04) (antibody, V domains shown)
VH: QVQLVQSGAEVKKPGASVKVSCKASGHTFTGYYIHWVRQAPGQGLEWMGWINPDSGATSSAQNFQGRVTMTGDTSSSTAYMELSRLSFDDTAVYYCARVLFTSPFDFWGEGTLVTVSS
VL: QAVVTQEPSLAVSPGGTVTLTCGSSTGAVTRGHYPYWFQQKPGQAPRALIYDSAGNRHSWTPARFSGSLLGGKAALTLSGAQPEDEAEYYCLLSYSGVWVFGGGTKLTVL
B2: TCN-547 (5092_F11) (antibody, V domains shown)
VH: QVQLQESGPGLVKPSQTLSLTCTVSGDSISSVDHYWSWIRQHPVKGLEWIGFMYYSASTYYNPSLKSRVTISTDTSKNQFSLRLSSVTAADTAVYYCARGTCAGDCSLHYYYYGLDVWGQGRTVTVSS
VL: DIQMTQSPSSLSASVGDRVTITCRASQSISSYLNWYQHKPGKAPKVLMYAVSILQSGVPSRFSGSGSGADFTLTISSLQPEDFATYYCQQSYSSPLTFGGGTKVEIK
B3: TCN-550 (5096_F06) (antibody, V domains shown)
VH: QVQLQESGPGLVKPSETLSLTCTVSGASINSHYWSWIRQPPGKGLEWIGYVYYSGSTTYNPSLKSRVTLSVDTSKNQFSLNLSSVTAADTAFYYCARHPYDVLTGSGDWFDPWGQGTLVTVSS
VL: SYVLTQAPSVSVAPGQTARITCGGNAIGSKKVHWYQHKAGQAPVLVVYDDTDRPSGIPERFSGSNSWSTATLTINRVEAGDEADYYCQVWDFTIDHVVFGGGTKLTVL
B4: TCN-556 (5089_K12) (antibody, V domains shown)
VH: QVQLVQSGAEVKKPGASVKVSCKASGYTFIGYDMHWVRQAPGQGLEWMGWINAKRGGTNYAQKFQGRVTMTRDTSISTAYMELNSLRSDDTAVYYCARGVGSRTTIFGVLNPEFDYWGQGTLVTVSS
VL: QSALTQPPSASGSPGQSVTISCTGSSSDVGGYDYVSWYQQHPGKAPKLLIYEVTKRPSGVPDRFSGSKSGNTASLTVSGLQAEDEADYYCSSYAGNYNHVFGPGTKVTVL
B5: TCN-523 (5248_A17) (antibody, V domains shown)
VH: QVQLVQSGAEVKKPGSSVKVSCKASGGSFSNYAFSWVRQAPGQGLEWMGGTIPLLGTTNYAQKFQGRVTISADQFTSTAYMELGSLRSEDTAVYYCTRRKMTTAFDSWGQGTLVTVSS
VL: QPVLTQPPSASASLGASVTLTCTLSSAYSNYKVDWYQQRPGKGPRFVMRVGTGGIVGSKGDGIPDRFSVLGSGLNRYLTIKNIQEEDESDYHCGADHGSGSNFVSPYVFGGGTKLTVL
B6: TCN-552 (5249_I23) (antibody, V domains shown)
VH: QVQVVQSGAEVKKPGSSVRVSCQASGGTFMNYAIIWVRRAPGQGLEWMGGIIPVFPTPNYAQMFQGRVTISTDESRSTSFLELTNLRYEDTAVYYCARRIYHGGNSGFDFWGQGTLVTVSS
VL: EIVLTQSPATLSLSPGERATLSCRASQSVGNYLAWYQQKPGQAPRLLIYDSSNRAPGIPARFSGSGSGTDFTLTISSLAPEDFAVYYCQQRSKWPPMYSFGHGTKLEIK
B7: TCN-553 (5261_C18) (antibody, V domains shown)
VH: QVQVVQSGTEVKKPGSSVKVSCQTSGGRFMSYAITWVRQAPGQGLEWMGGIVPVFGTANYAQKFQGRVTITTDDSTRTAYMELSSLRSEDTAVYYCGFRYGSGYGFDSWGQGTLVTVSS
VL: EIVLTQSPGTLSLSPGERATLSCRASQSVSSSYLAWYQKKPGQAPRLLIYGASTRATGIPDRFTGSGSGTDFTLSISRLEPEDFAVYYCQHFGTSVFTFGGGTKVEIK
B8: TCN-548 (5092_P01) (antibody, V domains shown)
VH: QVQLQESGPGLVKPSETLSLTCTVSSGPMSDYYWSWIRQPPGKGLEWIGHVSVSHGGRTKSNPSVMSRVTISVETSKNQFSLKLTSVTAADTAVYYCARLNYYDRSGYHSPDGPSNNWFDPWGQGTLVTVSS
VL: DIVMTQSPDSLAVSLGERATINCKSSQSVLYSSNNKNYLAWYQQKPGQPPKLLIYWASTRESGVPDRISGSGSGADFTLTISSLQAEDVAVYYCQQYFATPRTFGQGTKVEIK
B9: TCN-549 (5092_P04) (antibody, V domains shown)
VH: QVQLVQSGAEVKKPGASVKVSCKASGYTFTGYYMHWVRQAPGQGLEWMGWINPNSGDTNYAQKFQGRVTMTRDTSITTAYMELSSLRSDDTAVYYCARDSPYSSSWSFFDYWGQGPLVTVSS
VL: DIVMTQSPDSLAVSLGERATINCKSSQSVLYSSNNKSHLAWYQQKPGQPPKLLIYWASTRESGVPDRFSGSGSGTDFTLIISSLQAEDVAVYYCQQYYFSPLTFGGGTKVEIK
B10: TCN-539 (5056_A08) (antibody, V domains shown)
VH: QVQLVESGGGVVQPGRSLRLSCAASEITFITYAMHWVRQAPGKGLEWVALISDDGSNKFYADSVKGRFTISRDNSKNTLYLQMNSLRAEDTAAYYCAREGVYFDSGTYRGYFDYWGQETLVTVSS
VL: EIVLTQSPATLSLSPGERATLSCRASQSVSSYLAWYQQKPGQAPRLLIYDASNRATGIPARFSGSGSGTDFTLTISSLEPEDFAVYYCQQRSHWPPITFGQGTRLEIK
B11: TCN-544 (5082_A19) (antibody, V domains shown)
VH: QVQLQESGPGLVKPSETLSLTCTVSRGSIGHYFWSWIRQPPGKGLEWIGYISYSGSTKYNPSLRSRVTISVDTSKNQFSLNLNSVTATDTALYYCAREDYDILTGAGPGMEVWGQGTTVTVSS
VL: QSMLTQPPSASGTPGQRVTISCSGSSSNIGSNTVNWFKHLPGTAPKLLIYRNDLRPSGVPDRFSGSKSGTSASLAISGLQSEDEADYYCATWDDSLNGFYVFGTGTKVTVL
B12: TCN-537 (3194_D21) (antibody, V domains shown)
VH: QVQLQQWGSGLLKPSETLSLTCAVYGGSFRDDYWTWIRQPPGKGLEWIGEINHSGRTNYNPSLKSRVTISVDTSLKQFSLKVISVTAADTAVYYCARGTSHVSRYFDWLPPTNWFDPWGQGTQVTVSS
VL: DIVLTQSPGTLSLSPGERATLSCRASQSVSSSYLAWYQQKPGQAPRLVMYGAATRATGIPDRFSGSGSGPDFTLTISRLEPEDFAMYYCQQYGNSPITFGQGTRLEIK
B13: TCN-504 (3251_K17) (antibody, V domains shown)
VH: QVQLQESGPGLVKPSETLSLTCAVSGVSISNIDFYWGWIRQPPGKGLEWIGNIYYTGITFYNPSLSSRVAISIDTSKNQFSLTLTSVTAADTAMYYCARHYGDSEAINDAFDIWGQGTMLTVSS
VL: EIVMTQSPATLSVSPGERATLSCRASQSVGNSLAWYQQRPGQAPRLLIYGASTRATGIPPRFSGSGSGTEFTLTISSLQTEDFAVYYCQQYINWRPLSFGGGTKVEIK
B14: TCN-545 (5082_I15) (antibody, V domains shown)
VH: QVQLQQWGAGLLKPSETLSLSCAVFGGSFSDYYWTWIRQPPGKGLEWIGEIKHSGRTNYNPSLESRVTISVDTSKNQFSLKLSSVTAADTAIYYCARGTDPDTEGYCRSGSCSAFDFWGQGTLVTVSS
VL: EIVLTQSPGTLSLSPGERATLSCRASHFVNYRSLAWYQQTPGQVPRLLIYGASTRATGIPDRFSGSGSGTDFTLTISRLEPEDFAVYFCQQYGGSPRYTFGQGTRLEIK
B15: TCN-538 (3206_O17) (antibody, V domains shown)
VH: QITLKESGPTLVKPTQTLTLTCVFSGFSLSITGVRVGWIRQPPGKALEWLALISWDDEKHYSPSLQSRLTITKDTSKNQVVLTMTNLDPVDTATYYCARSTDRGHVLRYFGWMLPGDAFDVWGQGTMVTVSS
VL: DIVMTQSPDFLPVSLGERATINCKSSQRVLYSSNNKNYLAWYQLKPGQPPKLIIYWASTRESGVPDRFSGSGSGTEFTLTISSLQAEDVAVYYCQQYYSRPYTFGQGTKLEIK
B16: TCN-536 (5095_N01) (antibody, V domains shown)
VH: QVQLQQWGAGLLKPSETLSLTCAVYGGSFSVSGYYWSWIRQPPGRGLEWIGEISHGGSTNYNPSLKSRVTISVDTTKNQFSLRLSSVTAADTAVYYCARGTDPDTEVYCRVGNCAAFDYWGQGSLVTVSS
VL: EIILAQSPGTLSLSPGERATLSCRASQFVSTRSLAWYQQRPGQAPRLLIYGASSRATGIPDRFSGSGSGTDFTLTISRLEPEDFAVYYCQHYGYSPRYAFGQGSKVEIK
B17: TCN-535 (5246_P19) (antibody, V domains shown)
VH: QVQLVQSGSEVKKPGTSVKVSCTASGSVFTNYGISWVRQAPGQGLEWMGGIIPLFGAAKYAQKFQGRVTITADESTKTVYMELSRLTSKDTAIYFCAKAPRVYEYYFDQWGQGTPVTVSS
VL: EIVLTQSPGTLSLSPGERATLSCRASQSVSSSQLAWYQQKPGQAPRLIIYGASTRATGIPDRFSGSGSGTDFTLTIGRLEPEDFAVFFCQQYSTSPPTFGQGTKVDFK
B18: TCN-534 (5249_B02) (antibody, V domains shown)
VH: QVQLVQSGAEVKKPGSSVKVSCRESGGTFNGYTITWVRQAPGQGLEWMGGIIPMMGTVNYAQKLQGRVTITTDYFTKTAYMDLNNLRSEDTAMYYCVKIRYTGQQLLWGQGTLVTVSS
VL: DIQMTQSPSTLSASIGDRVTITCRASQSIASWLAWYQQKPGKAPKLLIYEAVNLESGVPSRFSGSGSGTDFTLTISSLQPDDFATYFCQHYGTISQTFGGGTKVEIK
B19: TCN-550 (5096_F06) (antibody, V domains shown)
VH: QVQLQESGPGLVKPSETLSLTCTVSGASINSHYWSWIRQPPGKGLEWIGYVYYSGSTTYNPSLKSRVTLSVDTSKNQFSLNLSSVTAADTAFYYCARHPYDVLTGSGDWFDPWGQGTLVTVSS
VL: SYVLTQAPSVSVAPGQTARITCGGNAIGSKKVHWYQHKAGQAPVLVVYDDTDRPSGIPERFSGSNSWSTATLTINRVEAGDEADYYCQVWDFTIDHVVFGGGTKLTVL
B20: TCN-540 (5060_F05) (antibody, V domains shown)
VH: QVQLVQSGGGVVQPGRSLRLSCAASGFTFSSYAMHWVRQAPGKGLEWVAIISYDGNDQYYTDSVKGRFTISRDSSKVYLQMHRLRPEDTAVYYCAKEFETSGYFHGSFDYWGQGILVTVSS
VL: QSALTQPASVSGSPGQSITISCTGTSSDVGGYNYVSWYQQHPGKAPKLLIYEVTNWPSGVSNRFSGSKSGNTASLTISGLQAEDEADYYCSSYAGSSTWVFGGGTRVTVL
B21: TCN-543 (5081_G23) (antibody, V domains shown)
VH: QVHLVQSGAEVRKPGDSVKVSCKTSGYTFSTYPVAWVRQVPGQGLEWMGWISTYNGNTNFAQNFQGRVTLTTDTTTNTAYMEVRSLKFDDTAVYYCARVEGSYRDFWNNQNRFDPWGQGTLVTVSS
VL: SYVLTQPPSVSVAPGQTARISCGGSNIGGKSVHWYQQKPGQAPVLVVYDDSGRPSGIPERFSGSNSGDTATLTISRVEAGDEADYFCQVWDNFGGVFGTGTKVTVL

The record followed here is patent US20150086555A1 (THERACLONE SCIENCES, published 2015).

The first experiment has as its target hemagglutinin (HA) of influenza A/Japan/305/57 (H2N2) on whole virions (Influenza A virus A/Japan/305/1957(H2N2), UniProt P03451 16-562). The experiment is described as follows: ELISA; BCC supernatant on coated inactivated whole virions. (In general: ELISA stands for enzyme-linked immunosorbent assay.)
On to B1, for which the “ELISA virus binding (OD450)” value stood at 2.7 OD450.

Turning to B2, the “ELISA virus binding (OD450)” value was 0.07 OD450.

With B3, the “ELISA virus binding (OD450)” value was 0.06 OD450. On the same count and under the same terms, the value for B4 was 2.41 OD450; that for B5 was 1.62 OD450. In the case of B6, the “ELISA virus binding (OD450)” value was determined as 0.71 OD450. Consider B7, for which the “ELISA virus binding (OD450)” value was 2.54 OD450. B8: the “ELISA virus binding (OD450)” value was determined as 0.09 OD450. For the molecule B9, the “ELISA virus binding (OD450)” value worked out at 0.08 OD450.

The next experiment concerns the target hemagglutinin on live influenza A virus, A/California/4/09 H1N1 (Influenza A virus …). In words: cell-based or functional assay.
With B10, the “% Neutralization” value is 0%. B11: the “% Neutralization” value came to 0%.

With B12, the “% Neutralization” value was 71%. Regarding B13, the “% Neutralization” value came out at 0%. As to B14, the “% Neutralization” value was found to be 0%.

Consider B15, for which the “% Neutralization” value was determined as 66%. Consider B16, for which the “% Neutralization” value amounted to 18.8%.

On to B17, for which the “% Neutralization” value worked out at 97.3%.

As for B18, the “% Neutralization” value amounted to 96.4%. Same read-out and setting: the value for B19 was 0%; that for B20 was 0%; that for B21 was 0%.
